Sequences and labels used below:
B1: GLS3000 V27cY one-arm antibody (H chain CE115HA000) (antibody, human IgG1, kappa, L234A L235A, N297A, name in Kabat numbering)
heavy: QVQLVESGGGVVQPGRSLRLSCAASGFTFSNAWMHWVRQAPGKGLEWVAQIKAKSNNYATYYAESVKGRFTISRDDSKNSLYLQMNSLKTEDTAVYYCRYVHYGAYYGVDAWGQGTTVTVSSASTKGPSVFPLAPSSKSTSGGTAALGCLVKDYFPEPVTVSWNSGALTSGVHTFPAVLQSSGLYSLSSVVTVPSSSLGTQTYICNVNHKPSNTKVDKKVEPKSCDKTHTCPPCPAPEAAGGPSVFLFPPKPKDTLMISRTPEVTCVVVDVSHEDPEVKFNWYVDGVEVHNAKTKPREEQYASTYRVVSVLTVLHQDWLNGKEYKCKVSNKALPAPIEKTISKAKGQPREPQVYTLPPSRCELTKNQVSLSCAVKGFYPSDIAVEWESNGQPENNYKTTPPVLDSDGSFFLVSKLTVDKSRWQQGNVFSCSVMHEALHNHYTQKSLSLSPDYKDDDDK
chain: EPKSSDKTHTCPPCPAPELLGGPSVFLFPPKPKDTLMISRTPEVTCVVVDVSHEDPEVKFNWYVDGVEVHNAKTKPREEQYNSTYRVVSVLTVLHQDWLNGKEYKCKVSNKALPAPIEKTISKAKGQPREPQVCTLPPSRDELTKNQVSLWCLVKGFYPSDIAVEWESNGQPENNYKTTPPVLDSDGSFFLYSKLTVDKSRWQQGNVFSCSVMHEALHNRYTQKSLSLSP
light: DIVMTQSPLSLPVTPGEPASISCRSSQSLYHSNRNTYLHWYQQKPGQAPRLLIYKVSNRFSGVPDRFSGSGSGTDFTLKISRVEAEDVGVYYCGQGTQVPYTFGQGTKLEIKRTVAAPSVFIFPPSDEQLKSGTASVVCLLNNFYPREAKVQWKVDNALQSGNSQESVTEQDSKDSTYSLSSTLTLSKADYEKHKVYACEVTHQGLSSPVTKSFNRGEC
notes: one-arm antibody
B2: GLS3000 V51D one-arm antibody (H chain CE115HA000) (antibody, human IgG1, kappa, L234A L235A, N297A, name in Kabat numbering)
heavy: B1 heavy
chain: B1 chain
light: B1 light with Y30V, V56D
notes: one-arm antibody
B3: GLS3000 Y32D one-arm antibody (H chain CE115HA000) (antibody, human IgG1, kappa, L234A L235A, N297A, name in Kabat numbering)
heavy: B1 heavy
chain: B1 chain
light: B1 light with Y30V, Y37D
notes: one-arm antibody
B4: GLS3000 Y32A one-arm antibody (H chain CE115HA000) (antibody, human IgG1, kappa, L234A L235A, N297A, name in Kabat numbering)
heavy: B1 heavy
chain: B1 chain
light: B1 light with Y30V, Y37A
notes: one-arm antibody
B5: CE115HA000 H chain altered form H35A (antibody, human IgG1, kappa, L234A L235A, N297A, name in Kabat numbering)
heavy: B1 heavy with H35A
chain: B1 chain
light: B1 light with Y30V
notes: one-arm antibody
B6: CE115HA000 H chain altered form A52aG (antibody, human IgG1, kappa, L234A L235A, N297A, name in Kabat numbering)
heavy: B1 heavy with A53G
chain: B1 chain
light: B1 light with Y30V
notes: one-arm antibody
B7: CE115HA000 H chain altered form A52aD (antibody, human IgG1, kappa, L234A L235A, N297A, name in Kabat numbering)
heavy: B1 heavy with A53D
chain: B1 chain
light: B1 light with Y30V
notes: one-arm antibody
B8: CE115HA000 H chain altered form A52aE (antibody, human IgG1, kappa, L234A L235A, N297A, name in Kabat numbering)
heavy: B1 heavy with A53E
chain: B1 chain
light: B1 light with Y30V
notes: one-arm antibody
B9: CE115HA000 H chain altered form A52aP (antibody, human IgG1, kappa, L234A L235A, N297A, name in Kabat numbering)
heavy: B1 heavy with A53P
chain: B1 chain
light: B1 light with Y30V
notes: one-arm antibody
B10: CE115HA000 H chain altered form A32Y (antibody, human IgG1, kappa, L234A L235A, N297A, name in Kabat numbering)
heavy: B1 heavy with A32Y
chain: B1 chain
light: B1 light with Y30V
notes: one-arm antibody

Positions count from the first letter of the chain named. Names and notes keep the numbering of the source.

The first experiment addresses T1, CD3 epsilon homodimer protein (UniProt P07766 23-126).
T1 construct: also called CD3 (CD3 epsilon)
In words: SPR, CD3e homodimer on chip.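 Note: surface plasmon resonance at 25 degrees C, antibodies flowed as analyte over CD3 epsilon homodimer amine-coupled to a CM4 chip, running buffer HBS-EP+.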 A general note: SPR reads the build-up and loss of mass on a sensor chip optically.
T1 sequence (P07766 23-126): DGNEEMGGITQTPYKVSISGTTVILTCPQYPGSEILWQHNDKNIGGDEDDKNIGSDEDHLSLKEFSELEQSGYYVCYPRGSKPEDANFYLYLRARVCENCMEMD
Consider B1, for which the “ratio of amounts bound (altered form / unaltered GLS3000 antibody)” value amounted to 0.77. For the molecule B2, the “ratio of amounts bound (altered form / unaltered GLS3000 antibody)” value was 0.33.

In the case of B3, the “ratio of amounts bound (altered form / unaltered GLS3000 antibody)” value is 0.23. The same measure, in the same setting: next, B4: 0.24.

In a further experiment the target is T2, CD3 epsilon homodimer protein (UniProt P07766 23-126).
T2 construct: also called CD3 (CD3 epsilon)
Kind of experiment: SPR Biacore T200, CD3 epsilon homodimer on chip, antibody as analyte.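 Note: homodimer amine-coupled to a CM4 sensor chip, run at 25 °C in HBS-EP+ buffer, with kinetic parameters derived in Biacore T200 Evaluation Software.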
T2 sequence (P07766 23-126): as above
Procedure: An appropriate amount of CD3 epsilon homodimer protein was immobilized onto Sensor chip CM4 (GE Healthcare Japan Corp.) by the amine coupling method. Then, the antibody having an appropriate concentration was injected thereto as an analyte and allowed to interact with the CD3 epsilon homodimer protein on the sensor chip. Then, the sensor chip was regenerated by the injection of 10 mmol/L glycine-HCl (pH 1.5). The assay was conducted at 25 degrees C., and HBS-EP+(GE Healthcare Japan Corp.) was used as a running buffer. […] Each parameter was calculated using Biacore T200 Evaluation Software (GE Healthcare Japan Corp.).
Specifically, when the amount of the antibody comprising CE115HA000 bound was defined as X and the amount of the H chain one-amino acid altered form bound was defined as Y, a value of Z (ratio of amounts bound)=Y/X was used.
For B5, the “KD ratio (KD of CE115HA000 / KD of altered form)” value amounted to 25. The same measure, in the same setting: as for B6, the figure is 0.61; as for B7, 1.35; as for B8, 0.89.

Regarding B9, the “KD ratio (KD of CE115HA000 / KD of altered form)” value stood at 5. On the same count and under the same terms, as for B10, the figure is 2.11.

Values taken from patent US20240270846A1 (published 2024).
